Several values for one entry are separate records, joined by “and”; a condition that tells them apart may be missing. Identical values can stand only once. Like-named read-outs stand apart in the source and are kept apart here. Ends that are not written are not given here.
Experiments:
[1] = target: T1, human complement component C5 (human, UniProt P01031 19-673; P01031 678-1676)
[2] = target: T1, human complement component C5; assay: cell-based or functional assay
rabbit C5 = target: T2, rabbit C5 (rabbit); assay: SPR single-cycle kinetics, n=1
T2 construct: mature; also called rabbit C5 protein

mouse C5 = target: T3, mouse C5 (mouse, UniProt P06684 19-674; P06684 679-1680); assay: SPR single-cycle kinetics, n=1
T3 construct: mature; also called mouse C5 protein

[3] = target: T4, human complement component C3 (human, UniProt P01024 23-667; P01024 672-1663); assay: counter screen
T4 construct: also called biotinylated C3

ovalbumin = target: T5, ovalbumin (UniProt P01012 2-386); assay: counter screen
T5 sequence (looked up): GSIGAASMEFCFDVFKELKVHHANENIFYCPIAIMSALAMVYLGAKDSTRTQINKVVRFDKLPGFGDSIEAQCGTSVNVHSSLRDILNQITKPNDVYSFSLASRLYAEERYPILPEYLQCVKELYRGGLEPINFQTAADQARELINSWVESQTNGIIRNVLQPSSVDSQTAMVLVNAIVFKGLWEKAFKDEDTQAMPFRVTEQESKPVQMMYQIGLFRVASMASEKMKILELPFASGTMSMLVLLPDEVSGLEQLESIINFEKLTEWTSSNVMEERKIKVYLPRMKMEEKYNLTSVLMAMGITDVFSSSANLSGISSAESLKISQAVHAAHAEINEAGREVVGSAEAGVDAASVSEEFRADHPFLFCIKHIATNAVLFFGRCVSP

[4] = target: T1, human complement component C5; remark: listed apart in the source
[5] = target: T1, human complement component C5; assay: SPR single-cycle kinetics
[6] = target: T1, human complement component C5; assay: cell-based or functional assay; remark: listed apart in the source
[7] = target: T1, human complement component C5; assay: cell-based or functional assay; remark: listed apart in the source
[8] = target: T1, human complement component C5; assay: cell-based or functional assay; remark: listed apart in the source
[9] = target: T1, human complement component C5; assay: phage ELISA, OD 630 nm, anti-M13 HRP; C5 coated directly and biotinylated C5 captured on streptavidin
[10] = target: T4, human complement component C3; assay: SPR (Biacore), C3, mean of n=3
[11] = target: T1, human complement component C5; assay: SPR (Biacore), C5, mean of n=3
[12] = target: T1, human complement component C5; assay: cell-based or functional assay; remark: listed apart in the source
[13] = target: T1, human complement component C5; assay: cell-based or functional assay; remark: listed apart in the source
[14] = target: T1, human complement component C5; assay: cell-based or functional assay; remark: listed apart in the source
[15] = target: T1, human complement component C5; assay: cell-based or functional assay; remark: listed apart in the source
[16] = target: T1, human complement component C5; assay: SPR single-cycle kinetics, human C5, n=1
[17] = target: T1, human complement component C5; assay: cell-based or functional assay; remark: listed apart in the source
[18] = target: T1, human complement component C5; assay: cell-based or functional assay; remark: listed apart in the source
[19] = target: T1, human complement component C5; assay: SPR multi-cycle kinetics, human C5 immobilised, mean of n=3
[20] = target: T1, human complement component C5; assay: cell-based or functional assay; remark: listed apart in the source
[21] = target: T1, human complement component C5; assay: SPR single-cycle kinetics (Biacore 8K), C5 amine-coupled to a CM5 chip
[22] = target: T1, human complement component C5; remark: listed apart in the source
[23] = target: T1, human complement component C5; remark: listed apart in the source
[24] = target: T1, human complement component C5; remark: listed apart in the source

T4 sequence (P01024 23-667 limits assumed, chain 1 of 2): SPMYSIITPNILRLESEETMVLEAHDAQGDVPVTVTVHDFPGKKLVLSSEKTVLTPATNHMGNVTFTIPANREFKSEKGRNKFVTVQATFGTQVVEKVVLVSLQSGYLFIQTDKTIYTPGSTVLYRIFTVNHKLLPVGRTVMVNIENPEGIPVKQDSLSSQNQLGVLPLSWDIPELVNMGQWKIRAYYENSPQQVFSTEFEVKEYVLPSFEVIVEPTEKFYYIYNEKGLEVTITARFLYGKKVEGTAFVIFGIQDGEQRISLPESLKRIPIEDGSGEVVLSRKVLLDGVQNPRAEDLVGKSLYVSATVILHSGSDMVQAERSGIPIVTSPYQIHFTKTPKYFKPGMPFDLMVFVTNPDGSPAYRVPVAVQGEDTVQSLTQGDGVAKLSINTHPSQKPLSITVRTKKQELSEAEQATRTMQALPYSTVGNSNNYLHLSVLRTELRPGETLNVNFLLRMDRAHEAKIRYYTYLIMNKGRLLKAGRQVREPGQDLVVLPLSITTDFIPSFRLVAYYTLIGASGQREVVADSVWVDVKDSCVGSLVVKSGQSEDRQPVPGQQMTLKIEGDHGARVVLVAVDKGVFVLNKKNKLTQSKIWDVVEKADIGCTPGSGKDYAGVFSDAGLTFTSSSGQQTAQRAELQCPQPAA
T4 sequence (P01024 672-1663 limits assumed, chain 2 of 2): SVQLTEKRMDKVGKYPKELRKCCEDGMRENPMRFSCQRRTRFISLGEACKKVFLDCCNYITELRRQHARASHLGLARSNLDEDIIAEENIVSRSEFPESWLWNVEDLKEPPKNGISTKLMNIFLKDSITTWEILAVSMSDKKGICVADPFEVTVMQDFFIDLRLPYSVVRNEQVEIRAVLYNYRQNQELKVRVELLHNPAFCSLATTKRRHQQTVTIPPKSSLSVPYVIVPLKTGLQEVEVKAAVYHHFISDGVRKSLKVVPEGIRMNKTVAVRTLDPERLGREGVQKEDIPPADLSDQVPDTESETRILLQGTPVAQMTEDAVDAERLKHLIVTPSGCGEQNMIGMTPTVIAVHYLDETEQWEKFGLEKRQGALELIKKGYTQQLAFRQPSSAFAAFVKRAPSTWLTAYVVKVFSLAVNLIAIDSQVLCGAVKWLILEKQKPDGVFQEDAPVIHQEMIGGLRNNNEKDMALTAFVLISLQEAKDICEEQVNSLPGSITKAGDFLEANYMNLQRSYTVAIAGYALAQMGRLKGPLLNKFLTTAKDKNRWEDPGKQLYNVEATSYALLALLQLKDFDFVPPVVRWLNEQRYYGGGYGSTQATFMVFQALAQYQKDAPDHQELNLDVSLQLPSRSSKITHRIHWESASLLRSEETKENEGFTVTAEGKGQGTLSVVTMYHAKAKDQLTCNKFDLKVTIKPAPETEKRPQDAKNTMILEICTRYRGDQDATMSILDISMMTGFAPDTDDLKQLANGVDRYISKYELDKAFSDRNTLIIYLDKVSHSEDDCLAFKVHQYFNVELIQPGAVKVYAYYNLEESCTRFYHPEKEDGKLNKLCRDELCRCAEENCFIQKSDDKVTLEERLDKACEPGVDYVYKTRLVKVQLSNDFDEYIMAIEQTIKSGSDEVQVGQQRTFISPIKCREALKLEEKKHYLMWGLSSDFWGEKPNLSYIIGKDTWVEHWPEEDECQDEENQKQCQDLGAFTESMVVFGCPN
T1 sequence (P01031 19-673 limits assumed, chain 1 of 2): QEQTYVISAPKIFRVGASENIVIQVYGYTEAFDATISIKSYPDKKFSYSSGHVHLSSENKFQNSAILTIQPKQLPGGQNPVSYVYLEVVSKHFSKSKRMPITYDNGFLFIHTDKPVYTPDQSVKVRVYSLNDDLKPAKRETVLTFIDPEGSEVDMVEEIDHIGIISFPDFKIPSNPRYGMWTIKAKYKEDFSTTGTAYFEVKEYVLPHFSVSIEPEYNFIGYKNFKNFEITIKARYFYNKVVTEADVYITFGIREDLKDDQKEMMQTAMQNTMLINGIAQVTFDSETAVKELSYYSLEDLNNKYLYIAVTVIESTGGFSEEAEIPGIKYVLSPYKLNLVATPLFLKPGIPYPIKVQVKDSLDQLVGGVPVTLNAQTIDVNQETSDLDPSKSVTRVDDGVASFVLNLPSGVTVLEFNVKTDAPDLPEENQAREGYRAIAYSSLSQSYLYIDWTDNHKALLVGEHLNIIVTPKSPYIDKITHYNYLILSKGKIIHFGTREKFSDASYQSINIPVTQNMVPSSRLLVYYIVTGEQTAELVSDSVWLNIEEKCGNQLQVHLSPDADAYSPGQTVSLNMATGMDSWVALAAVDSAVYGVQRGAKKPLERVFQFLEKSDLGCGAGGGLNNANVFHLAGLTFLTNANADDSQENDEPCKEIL
T1 sequence (P01031 678-1676 limits assumed, chain 2 of 2): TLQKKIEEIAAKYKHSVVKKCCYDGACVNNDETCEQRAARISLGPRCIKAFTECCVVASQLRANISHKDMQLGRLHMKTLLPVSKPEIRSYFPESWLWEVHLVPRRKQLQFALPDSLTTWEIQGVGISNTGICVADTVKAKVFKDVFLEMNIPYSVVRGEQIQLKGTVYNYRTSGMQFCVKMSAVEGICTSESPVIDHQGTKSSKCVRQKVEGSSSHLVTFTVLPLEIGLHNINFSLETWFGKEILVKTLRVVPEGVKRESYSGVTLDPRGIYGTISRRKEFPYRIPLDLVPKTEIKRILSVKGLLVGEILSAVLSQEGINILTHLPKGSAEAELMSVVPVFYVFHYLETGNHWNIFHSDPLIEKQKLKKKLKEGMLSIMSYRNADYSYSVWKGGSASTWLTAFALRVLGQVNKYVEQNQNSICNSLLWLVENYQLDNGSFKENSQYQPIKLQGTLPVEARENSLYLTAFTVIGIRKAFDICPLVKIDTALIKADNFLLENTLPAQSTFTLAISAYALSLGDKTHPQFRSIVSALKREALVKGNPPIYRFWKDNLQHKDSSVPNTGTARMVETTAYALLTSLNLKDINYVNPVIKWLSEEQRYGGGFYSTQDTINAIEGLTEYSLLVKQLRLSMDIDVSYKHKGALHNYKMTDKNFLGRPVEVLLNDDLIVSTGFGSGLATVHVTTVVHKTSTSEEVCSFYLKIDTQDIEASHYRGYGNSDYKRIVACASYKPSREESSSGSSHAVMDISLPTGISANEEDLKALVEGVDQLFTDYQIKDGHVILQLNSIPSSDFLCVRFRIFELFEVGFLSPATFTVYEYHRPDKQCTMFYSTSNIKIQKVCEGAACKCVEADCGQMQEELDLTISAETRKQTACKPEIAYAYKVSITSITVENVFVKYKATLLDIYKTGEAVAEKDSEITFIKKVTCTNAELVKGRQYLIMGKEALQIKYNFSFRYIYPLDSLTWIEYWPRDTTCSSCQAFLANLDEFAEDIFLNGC
T3 sequence (P06684 19-674 limits assumed, chain 1 of 2): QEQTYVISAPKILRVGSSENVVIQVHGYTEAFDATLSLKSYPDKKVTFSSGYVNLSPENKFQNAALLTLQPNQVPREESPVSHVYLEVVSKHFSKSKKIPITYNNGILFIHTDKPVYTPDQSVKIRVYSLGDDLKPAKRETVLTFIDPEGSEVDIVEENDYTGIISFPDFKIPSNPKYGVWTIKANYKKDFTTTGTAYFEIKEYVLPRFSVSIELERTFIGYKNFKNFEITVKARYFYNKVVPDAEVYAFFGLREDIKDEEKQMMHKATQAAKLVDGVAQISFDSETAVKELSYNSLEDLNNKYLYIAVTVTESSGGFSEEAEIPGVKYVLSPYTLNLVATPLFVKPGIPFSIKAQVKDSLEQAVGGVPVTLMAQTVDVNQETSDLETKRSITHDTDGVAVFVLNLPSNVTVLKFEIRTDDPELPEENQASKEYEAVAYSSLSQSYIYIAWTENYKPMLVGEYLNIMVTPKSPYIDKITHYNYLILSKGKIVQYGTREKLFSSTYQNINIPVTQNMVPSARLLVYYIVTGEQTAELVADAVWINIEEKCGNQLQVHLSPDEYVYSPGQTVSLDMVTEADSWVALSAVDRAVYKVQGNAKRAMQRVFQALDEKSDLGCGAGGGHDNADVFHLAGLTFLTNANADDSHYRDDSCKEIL
T3 sequence (P06684 679-1680 limits assumed, chain 2 of 2): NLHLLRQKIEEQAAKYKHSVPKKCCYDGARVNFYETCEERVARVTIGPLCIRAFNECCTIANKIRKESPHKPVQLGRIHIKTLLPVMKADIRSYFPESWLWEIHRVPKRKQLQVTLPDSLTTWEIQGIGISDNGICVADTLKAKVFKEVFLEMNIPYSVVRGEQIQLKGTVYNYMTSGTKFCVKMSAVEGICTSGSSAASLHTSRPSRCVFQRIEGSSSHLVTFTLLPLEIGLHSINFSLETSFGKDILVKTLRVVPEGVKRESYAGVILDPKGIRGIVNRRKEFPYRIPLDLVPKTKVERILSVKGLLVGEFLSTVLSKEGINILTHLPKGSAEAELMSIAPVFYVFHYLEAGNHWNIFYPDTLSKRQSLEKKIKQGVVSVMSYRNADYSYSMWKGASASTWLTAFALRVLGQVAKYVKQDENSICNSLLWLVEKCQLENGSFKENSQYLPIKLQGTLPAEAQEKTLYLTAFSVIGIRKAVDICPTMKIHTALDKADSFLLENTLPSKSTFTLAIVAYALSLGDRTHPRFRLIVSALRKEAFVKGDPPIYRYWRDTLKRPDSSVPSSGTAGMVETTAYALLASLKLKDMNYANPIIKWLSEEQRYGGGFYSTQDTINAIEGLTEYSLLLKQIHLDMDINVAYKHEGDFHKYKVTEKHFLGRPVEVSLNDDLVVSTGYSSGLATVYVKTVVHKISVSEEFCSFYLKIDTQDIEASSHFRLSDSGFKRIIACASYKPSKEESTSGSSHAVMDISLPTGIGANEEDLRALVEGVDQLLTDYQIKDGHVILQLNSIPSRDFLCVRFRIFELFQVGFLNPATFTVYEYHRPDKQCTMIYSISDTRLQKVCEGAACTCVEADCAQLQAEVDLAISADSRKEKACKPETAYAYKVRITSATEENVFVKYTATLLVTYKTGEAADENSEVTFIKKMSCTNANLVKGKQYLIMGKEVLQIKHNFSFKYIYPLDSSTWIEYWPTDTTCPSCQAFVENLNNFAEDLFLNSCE

B1: K92 knob domain peptide cleaved from the 645 Fab (peptide)
peptide: GSGSVTCPEGWSECGVAIYGYECGRWGCGHFLNSGPNISPYVTTGSENLYFQ
notes: Recombinant, cut out by TEV protease
In the case of B1, the Kd [1] is reported as less than 0.85 nM, the koff [1] is reported as 0.000113 s⁻¹ and the kon [1] is reported as 124000 M⁻¹ s⁻¹. For the same binder, the “Inhibition of alternative pathway mediated C5a release, average Emax” value [2] was 43.3%, the “Inhibition of alternative pathway mediated C5a release, geomean IC50” value [2] was 43.3 nM and the Kd (rabbit C5) was 76.6 nM. It also gave a koff (rabbit C5) of 0.00466 s⁻¹, a kon (rabbit C5) of 60800 M⁻¹ s⁻¹ and a Kd (mouse C5) of 63.1 nM. For the same binder, the koff (mouse C5) was 0.00487 s⁻¹, the kon (mouse C5) was 77200 M⁻¹ s⁻¹ and the binding result [3] was “no binding”. For the same binder, the binding result (ovalbumin) was “no binding”, the IC50 [4] was 7.6 nM and 7.4 nM and 7.3 nM and the Ki [4] was 3.7 nM. For the same binder, the Kd [5] was less than 40 nM, the “Inhibition of alternative pathway mediated bacterial lysis, average Emax” value [6] was 91% and the “Inhibition of alternative pathway mediated bacterial lysis, geomean IC50” value [6] was 2460 nM.

B2: hC3nb1-K57 loop 1 with C-terminal single-chain Fc tag (bispecific antibody, not shown: a dimerising Fc or GST)
VHH: QVQLVETGGGLVQASGGGSGCPPGYKSGVDCSPGSECKWGCYAVDGRRYGGYGADSGVSGGGSGSLRLSCAASGSIFSLNAMGWFRQAPGKEREFVATINRSGGRTYYADSVKGRFTISRDNGKNMVYLQMHSLKPEDTAIYYCAAGTGWSPQTDNEYNYWGQGTQVTVSS
In the case of B2, the “alternative pathway C5b neoepitope ELISA; IC50 (read off the curve)” value [7] is reported as roughly 200 nM and the “classical pathway C5b neoepitope ELISA; IC50 (read off the curve)” value [8] is reported as roughly 50 nM.

B3: hC3nb1 VHH displayed on M13 phage (VHH)
VHH: QVQLVETGGGLVQAGGSLRLSCAASGSIFSLNAMGWFRQAPGKEREFVATINRSGGRTYYADSVKGRFTISRDNGKNMVYLQMHSLKPEDTAIYYCAAGTGWSPQTDNEYNYWGQGTQVTVSS
notes: not shown: poly-histidine, c-myc tag, M13 pIII
B3: no binding [9].

B4: hC3nb1-K57 C-term with C-terminal single-chain Fc tag (bispecific antibody, V domains shown, not shown: a dimerising Fc or GST)
VH: B3 VHH
notes: also called hC3Nb1 C-Term
In the case of B4, the Kd [10] is reported as 0.302 nM and the Kd [11] is reported as 0.271 nM.

B5: K8 knob domain peptide cleaved from the 645 Fab (peptide)
peptide: GSVCPDGFNWGYGCAAGSSRFCTRHDWCCYDERADSHTYGFCTGNRVENLYFQ
notes: as for B1
For B5, the Kd [1] was 17.3 nM, the koff [1] was 0.000357 s⁻¹ and the kon [1] was 26100 M⁻¹ s⁻¹. For the same binder, the “Inhibition of alternative pathway mediated C5a release, average Emax” value [2] was 71.8%, the “Inhibition of alternative pathway mediated C5a release, geomean IC50” value [2] was 150 nM and the Kd (rabbit C5) was 9.12 nM. It also gave a koff (rabbit C5) of 0.000296 s⁻¹, a kon (rabbit C5) of 32400 M⁻¹ s⁻¹ and a Kd (mouse C5) of 4.69 nM. For the same binder, the koff (mouse C5) was 0.00019 s⁻¹, the kon (mouse C5) was 40400 M⁻¹ s⁻¹ and the “Inhibition of classical pathway mediated bacterial lysis, geomean IC50” value [12] was 16900 nM. The binding result [3] was “no binding”, the binding result (ovalbumin) was “no binding” and the IC50 [4] was 20.7 nM and 31.2 nM and 26.1 nM and 25.6 nM. For the same binder, the Ki [4] was 12.8 nM, the Kd [5] was less than 40 nM and the “Inhibition of alternative pathway mediated bacterial lysis, average Emax” value [6] was 98.1%. The “Inhibition of alternative pathway mediated bacterial lysis, geomean IC50” value [6] was 25800 nM and the “Inhibition of classical pathway mediated C5a release, geomean IC50” value [13] was 9.9 nM.

B6: K8 knob domain peptide, chemically synthesised, free energy method (peptide)
peptide: VCPDGFNWGYGCAAGSSRFCTRHDWCCYDERADSHTYGFCTGNRV
modifications: disulfide (positions not given here); not fully specified
notes: Disulphides formed in glutathione redox buffer; also called K8chemFE; K8chem
B6 was tested, and the “alternative pathway complement ELISA (C5b deposition); IC50 (read off the curve)” value [14] was roughly 80 nM, the “Alternative pathway C5b neoepitope ELISA, average Emax” value [15] was 91.5% and the “Alternative pathway C5b neoepitope ELISA, geomean IC50” value [15] was 46.1 nM. It also gave a Kd [16] of 12.1 nM, a koff [16] of 0.000397 s⁻¹ and a kon [16] of 32900 M⁻¹ s⁻¹. For the same binder, the “classical pathway complement ELISA (C5b deposition); IC50 (read off the curve)” value [17] was roughly 30 nM, the “Classical pathway C5b deposition ELISA, average Emax” value [18] was 47.3% and the “Classical pathway C5b deposition ELISA, geomean IC50” value [18] was 9.8 nM. It also gave a Kd [19] of 5.46 nM, a koff [19] of 0.000385 s⁻¹ and a kon [19] of 70500 M⁻¹ s⁻¹.

B7: hC3nb1-K57 loop 2 delta proline with C-terminal single-chain Fc tag (bispecific antibody, V domains shown, not shown: a dimerising Fc or GST)
VH: WFRQASGGGSGCPPGYKSGVDCSPGSECKWGCYAVDGRRYGGYGADSGVSGGGSKEREFVATINRSGGRTYYADSVKGRFTISRDNGKNMVYLQMHSLKPEDTAIYYCAAGTGWSPQTDNEYNYWGQGTQVTVSS
notes: also called hC3Nb1Loop2ΔP
B7 was tested, and the “classical pathway C5b neoepitope ELISA; IC50 (read off the curve)” value [8] was roughly 20 nM and the Kd [11] was 0.864 nM.

With TCPEGWSECGVAIYGYECGRWGCGHFLNSGPNISPYVST (also called chemical K92) [K92chemFE knob domain peptide] the “alternative pathway haemolysis assay; IC50 (read off the curve)” value [20] was roughly 200 nM, the “alternative pathway complement ELISA (C5b deposition); IC50 (read off the curve)” value [14] was roughly 70 nM and the Kd [19] was 0.411 nM. The koff [19] was 0.000101 s⁻¹ and the kon [19] was 283000 M⁻¹ s⁻¹.

GSKSCREGYIDGGGCCLPGSCRGCACSYYDWLKCPRDCRGTSEEENLYFQ (Recombinant, cut out by TEV protease) [K60 knob domain peptide cleaved from the 645 Fab]: no binding [3]; no binding (ovalbumin); no binding [21].

B8: PGT121 Fab-K92 knob domain fusion protein (Fab)
heavy: QMQLQESGPGLVKPSETLSLTCSVSGASISDSYWSWIRRSPGKGLEWIGYVHKSGDTNYSPSLKSRVNLSLDTSKNQVSLSLVAATAADSGKYYCARTLHGRRIYGSENLYFQGVTCPEGWSECGVAIYGYECGRWGCGHFLNSGPNISPYVTTGSENLYFQGSEWFTYFYMDVWGNGTQVTVSSASTKGPSVFPLAPSSKSTSGGTAALGCLVKDYFPEPVTVSWNSGALTSGVHTFPAVLQSSGLYSLSSVVTVPSSSLGTQTYICNVNHKPSNTKVDKRVEPKSCDKTLEENLYFQGSGGSHHHHHHHHHH
light: QSVLTQPPDISVAPGETARISCGEKSLGSRAVQWYQHRAGQAPSLIIYNNQDRPSGIPERFSGSPDSPFGTTATLTITSVEAGDEADYYCHIWDSRVPTKWVFGGGTTLTVLGQPKAAPSVTLFPPSSEELQANKATLVCLISDFYPGAVTVAWKADSSPVKAGVETTTPSKQSNNKYAASSYLSLTPEQWKSHRSYSCQVTHEGSTVEKTVAPTECS
In the case of B8, the Kd [22] is reported as less than 0.1 nM, the koff [22] is reported as less than 2.93e-05 s⁻¹ and the kon [22] is reported as 28000 M⁻¹ s⁻¹. For the same binder, the Kd [23] was 19.3 nM and 7.7 nM and 11.3 nM and 11.9 nM and the Kd [24] was 14 nM and 10.3 nM and 15.5 nM and 13.1 nM.

B9: PGT121 Fab-K136 knob domain fusion protein (Fab)
heavy: QMQLQESGPGLVKPSETLSLTCSVSGASISDSYWSWIRRSPGKGLEWIGYVHKSGDTNYSPSLKSRVNLSLDTSKNQVSLSLVAATAADSGKYYCARTLHGRRIYGSENLYFQGTCPDNYREVDGCDPYDCCLTTWCTNSYCTRYIENLYFQGSEWFTYFYMDVWGNGTQVTVSSASTKGPSVFPLAPSSKSTSGGTAALGCLVKDYFPEPVTVSWNSGALTSGVHTFPAVLQSSGLYSLSSVVTVPSSSLGTQTYICNVNHKPSNTKVDKRVEPKSCDKTLEENLYFQGSGGSHHHHHHHHHH
light: B8 light
In the case of B9, the Kd [22] is reported as less than 0.1 nM, the koff [22] is reported as less than 1e-05 s⁻¹ and the kon [22] is reported as 9520 M⁻¹ s⁻¹. The Kd [23] was 46.3 nM and 23.4 nM and 58.1 nM and 39.8 nM and the Kd [24] was 46.3 nM and 115 nM and 73 nM.

From US20240024520A1 (UCB, published 2024)
